Reference: paper doi:10.1101/2021.08.20.457137 (bioRxiv, 2021)

Columns and labels:
lysozyme = lysozyme (Gallus gallus, UniProt P00698); assay: SEC
VcNorM = VcNorM (UniProt Q9KRU4); assay: SEC
[1] = molecular target: Lyso-Nb_4 Y91A (alpaca scaffold, camel CDRs); assay: SPR
[2] = molecular target: Lyso-Nb_4 V89A (alpaca scaffold, camel CDRs); assay: SPR
[3] = molecular target: Lyso-Nb_4 W103A (alpaca scaffold, camel CDRs); assay: SPR
[4] = molecular target: Lyso-Nb_4 K43A (alpaca scaffold, camel CDRs); assay: SPR
[5] = molecular target: Lyso-Nb_4 L11A (alpaca scaffold, camel CDRs); assay: SPR
TC-Nb4 (alpaca) = assay: SPR
[6] = molecular target: Lyso-Nb_4 S112A (alpaca scaffold, camel CDRs); assay: SPR
[7] = molecular target: Lyso-Nb_4 P41A (alpaca scaffold, camel CDRs); assay: SPR
[8] = molecular target: Lyso-Nb_4 R45A (alpaca scaffold, camel CDRs); assay: SPR

B1: Lyso-Nb_4 (VHH)
VHH: QRQLVESGGGLVQPGGSLRLSCAASGSTDSIEYMTWFRQAPGKEREGVAALYTHTGNTYYADSVKGRFIISRDKAKNMVYLQMNSLEPEDTAVYYCGATRKYVPVRFALDQSSYDYWGKGTPVTVSS
B1: binds (lysozyme).

B2: NorM-Nb17_4 (VHH)
VHH: QRQLVESGGGLVQPGGSLRLSCAASGIIFKINDMGWFRQAPGKEREGVAGITSGGRTNYADSVKGRFIISRDNVKNTVYLQMNSLEPEDTAVYYCKSDGLISYAASQLSTYWGKGTPVTVSS
B2: binds (VcNorM).

B3: NabFab (Fab, V domains shown)
VH: EVQLVESGGGLVQPGGSLRLSCAASGFNFSYYSIHWVRQAPGKGLEWVAYISSSSSYTSYADSVKGRFTISADTSKNTAYLQMNSLRAEDTAVYYCARGYQYWQYHASWYWNGGLDYWGQGTLVTVSS
VL: DIQMTQSPSSLSASVGDRVTITCRASQSVSSAVAWYQQKPGKAPKLLIYSASSLYSGVPSRFSGSRSGTDFTLTISSLQPEDFATYYCQQSSSSLITFGQGTKVEIK
For B3, the fold higher KD against Lyso-Nb 4 [1] was > 25 fold, the fold reduction of affinity against Lyso-Nb 4 [2] was 600 fold and the fold reduction of affinity against Lyso-Nb 4 [3] was < 5 fold. For the same binder, the fold reduction of affinity against Lyso-Nb 4 [4] was < 5 fold, the fold reduction of affinity against Lyso-Nb 4 [5] was < 5 fold and the Kd (TC-Nb4 (alpaca)) was 0.86 nM. For the same binder, the fold reduction of affinity against Lyso-Nb 4 [6] was < 5 fold, the fold reduction of affinity against Lyso-Nb 4 [7] was 400 fold and the fold higher KD against Lyso-Nb 4 [8] was > 40 fold.
